The values that follow come from the DeepSol protein solubility set.

This data set can be described thus: soluble on expression in E. coli; label from the status in PepcDB or PDB records.
Consider “MGSDKIHHHHHHMKSYIIVGAGILGASTAYHLAKTGARVTVIDRKEPGQATDAAAGIVCPWLSQRRNQDWYQLAKGGARYYKDLIHQLEKDGESDTGYKRVGAISIHTDASKLDKMEERAYKRREDAPEIGDITRLSASETKKLFPILADGYESVHISGAARVNGRALCRSLLSAAEKRGATVIKGNASLLFENGTVTGVQTDTKQFAADAVIVTAGAWANEILKPLGIHFQVSFQKAQIMHFEMTDADTGSWPVVMPPSDQYILSFDNGRIVAGATHENDAGLDDLRVTAGGQHEVLSKALAVAPGLADAAAVETRVGFRPFTPGFLPVVGAVPNVQGLYAANGLGASGLTMGPFLGAELAKLVLGKQTELDLSPYDPAGALA”, for which the “soluble on expression in E. coli” value is “not soluble”.

As to “MSLVHPAGMAIMISGGIVQKIAPSDDILSEFAPWYPANSVSTDVEVIDIGEMSVVPGFVDSHTHLPWSGDRTNELTMRLRGKTYREIAQSGGGIMKTVSHTRSTPKRNLVASGISRVQECMRNGTTTLEAKSGYGLDLDSEVKLLEAISEIDRSTAIDIRATWLGAHDFPPEMGREDYVEHLISDQLPVISELSLARWVDVFCEQGWFTNEQTEDIVKASKDYGMKSRLHVDEFVDSGGLALAAELGSVSADHVACSNDDSRVSAAESGTVQTFLPGTPYVLGKSLELPIKKCITEDWPFSIATDFNPNCPITSLPLIGSFVTHRLGVDPIASLVAVTRNPATTMFDEEEPRGVISEGSIADMNVLWSSSADSWCQTPGSSPVRDTIKNGIIVNSNKTYEGHHHHHH”, the “soluble on expression in E. coli” value is listed as “soluble”.

“MATIIFAGRSNVGKSTLIYRLTGKKVRRGKRPGVTRKIIEIEWKNHKIIDMPGFGFMMGLPKEVQERIKDEIVHFIEDNAKNIDVAVLVVDGKAAPEIIKRWEKRGEIPIDVEFYQFLRELDIPTIVAVNKLDKIKNVQEVINFLAEKFEVPLSEIDKVFIPISAKFGDNIERLKNRIFEVIRERQGRRV”: the “soluble on expression in E. coli” value is given as “soluble”.

For “MAHHHHHHMEEHPKILSIAGSDSCAGAGMQADLKTAMSLGCHCCTILVVLTAQNTKEVKSIIEVDEKFIVEQLDAIFTDITIEVVKLGVLYSKKIISLIHNYITNINKMREKKLLVVFDPVFVSSSGCMLVENLDYVKYALDLICPLSCIITPNFYECKVILEALNFNIDINNMRTSDLCKLVTEKLNINACLFKSCNIDINTEDENKLYAVDHLCIKNDNDYDTKIKQNISYDVYKLKSKRNPQKDIHGTGCTLSTAISCFLSKKYDIIQACIESKKYIYNCINYAYDLGSKSQGLNHLKAAQHLTDFRELQVIKVD”, the “soluble on expression in E. coli” value is listed as “soluble”.

For the sequence “MKPKDFCTAENWAENLSALGYLAGWRFVRMLPLPIARRVFDLGADLASKSGKGMGQLRANLARVVGAENVTQALVKQATRSYARYWLEAFRLPAIARDPELLARLRKGTVGLDLLDESLAAGKGVVLTLPHSGNWDMAGAFLISHHGQFTTVAERVKPERLFEAFVEFRESLGFEVLPLTGGERPPFEKLKERLTSGGIVCLLGERDLRHSGVETTFFGEKTSMPAGPAQLAIETGAALHVVHPWFDDDGWGLSVSDAVTVDNLSDTVQRIAHLFMANITAHPADWHMLQPLWFGDLDPERLKRSREQTNVHKPVALQEDN”, the “soluble on expression in E. coli” value is given as “not soluble”.

Take “MSLSIRLHIWGDYACFTRPEMKVERVSYDVMTPSAARGILEAIHWKPAIRWHIDRLHVLKPIRFQSIRRNEVGAKASASNAKSAMKKGSTEGLGIVVDENRQQRAAMVLTNVAYVIEAHFTMTEKAGPEDTPAKHLSMFNRRAAKGQCFHRPCLGTREFAAEFALLGENDPLPEAKPRLEVRDDDFGWMLHDIDFASGRNESHFFRAVMKDGVIEVPPFKSGEVVKEGHHHHHH”: the “soluble on expression in E. coli” value is listed as “soluble”.

For “MAHHHHHHMASLTVPAHVPSAAEDCEQLRSAFKGWGTNEKLIISILAHRTAAQRKLIRQTYAETFGEDLLKELDRELTHDFEKLVLVWTLDPSERDAHLAKEATKRWTKSNFVLVELACTRSPKELVLAREAYHARYKKSLEEDVAYHTTGDHRKLLVPLVSSYRYGGEEVDLRLAKAESKILHEKISDKAYSDDEVIRILATRSKAQLNATLNHYKDEHGEDILKQLEDGDEFVALLRATIKGLVYPEHYFVEVLRDAINRRGTEEDHLTRVIATRAEVDLKIIADEYQKRDSIPLGRAIAKDTRGDYESMLLALLGQEED”, the “soluble on expression in E. coli” value is reported as “soluble”.

“MSLSELGLGDPERPLDAVLHGFSISQSETIGRRTEMEDVTMIIKDFASYRRGRSSYRGAKCHESGHKEILLGIFDGHGGTECSSMVGDLFPVAFADALNSVLYAAQLNHAYDLPDSVWEPLFVGVFLRLDDTLRLKNIQSGSTAAICFILDNLVVSANCGDSRTVLTRDEAMIKSFGCDSMLYKVEGPTRSSRINEISSGSLLQLEQSQTAQLSGHAIINSARYFMNPEETSEEALVSAKRRGKRVEGLSLRLSKDHKPDDPTETRRIEASGGYVHGGRVMGTLSVCRSFGDFVYKPSISVVPFVSVYHFRTYDAWIVIACDGCWDSISDIDAAMLLSTCLSSQAGALKLRDEAYRLNSQDNISVITVRLYLEEGHHHHHH”: the “soluble on expression in E. coli” value is reported as “soluble”.

As for “MADSGTAGGAALAAPAPGPGSGGPGPRVYFQSPPGAAGEGPGGADDEGPVRRQGKVTVKYDRKELRKRLNLEEWILEQLTRLYDCQEEEIPELEIDVDELLDMESDDARAARVKELLVDCYKPTEAFISGLLDKIRGMQKLSTPQKK”, the “soluble on expression in E. coli” value is on record as “soluble”.

Consider “MPLHVVLYQPEIPANTGNIARTCAATDTSLHLIRPLGFSTDDKMLKRAGLDYWPYVNISYYDSLDELFARFPEGEFYFITKFGRRYYDSFDFSDTEKHIFFVFGRETTGLPKELLEANMDRCLRIPMNDKVRSLNLSNTAAILVYEALRQQRFYGLS”, for which the “soluble on expression in E. coli” value was “not soluble”.

For the sequence “MPKLSAFYYQVLEDFGYIYDSSITVPPVPVPVWPYTLDYKISHECKSGTCPSRTFPGVWEVPLNTHYVEGYEGGHCPYLDQCVLHNLDEEEVFQWLQEDFSRYYEQNKAPYMMPFHTNWFQTKPLENGLHKFLDWALELLEHHHHHH”, the “soluble on expression in E. coli” value was “not soluble”.

For “MGRRRGFLTMRIPRIYHPEPLTSHSHIALCEDAANHIGRVLRMGPGQALQLFDGSNQVFDAEITSASKKSVEVKVLEGQIDDRESPLHIHLGQVMSRGEKMEFTIQKSIELGVSLITPLFSERCGVKLDSERLNKKLQQWQKIAIAACEQCGRNRVPEIRPAMDLEAWCAEQDEGLKLNLHPRASNSINTLPLPVERVRLLIGPEGGLSADEIAMTARYQFTDILLGPRVLRTETTALTAITALQVRFGDLGLEHHHHHH”, the “soluble on expression in E. coli” value is on record as “not soluble”.

With “GSKKHSVLHLVPVNITSKADSDVTEVMWQPVLRRGRGLEAQGDIVRVWDTGIYLLYSQVLFHDVTFTMGQVVSREGQGRRETLFRCIRSMPSDPDRAYNSCYSAGVFHLHQGDIITVKIPRANAKLSLSPHGTFLGFVKL”, the “soluble on expression in E. coli” value is listed as “soluble”.

With “MSLQTIKIGLPVPLSGPYGAEAQDQVRNAELAVKQFNDAGGLDGRKAQLLVRDDRLNPAEAATRALELIEKDGVNFIVGGLSAATQLSINNVTRQRKKLYISISQSDAINEAADASPYTFHEALNPHMTTQAVGKYVFKPGMRVAFLTADYAYGHEMTRGFTEVARQQGAEVVGEVKHPLGASDYSAFLPRLKALNPDVLVFNNFGADNRISIKQAADFGMKRNIRFVTPILTYTARVSGGAATYQDVVGGTQYYWAIQDSVPSAKAFNAAFQAENNGRFPSDYGAMAYSAVKSLLLAVRDAGSTDTDEVAAALRKLKYDTYKGAQYYRGCDQQSVQSVLVIQSVGKDNAHPDEVFKLLHTEAPSEGHHHHHH”, the “soluble on expression in E. coli” value is “soluble”.

In the case of “VEKVFVVGHKNLDMDALGATVGMAHFASQIVRKSYAVYDDMAMNTDIERAVERLKEDGQSPLITLSEAEELVNQHSLLIMVDHSKINLTLSQDFYDRFNEVIVVDHHRRDDDFPENAVLTFIESGASSACELVTELLQFQGAPERLSKIQASILMAGIMLDTKNFSTRVTSRTFDVASYLRSLGSDSGEIQMISATDF”, the “soluble on expression in E. coli” value is recorded as “not soluble”.

Turning to “MPIPLYLQDWWLDAVCGFDEWMAFVLEEEGTVSGVMPCYMPVPGHISMPPFTQFLGSYSFIGINEDSTTSFRAHRRVHDMLRSMLPPHKSFMVQYSKDFTDWLPYYWQGYSQTTRYTYRIDLSPGIDVVRMAIRPDAMKKIRKAERDGLRCTSATVDDLLRLCRISMSRQEAKGFAAETLQRLAEVAIERHAGEIVGCEDSEGRLLAAVFLAHDHNTAYTIASGQIREGQGRNAGAFVLYEAIWRACEMEGIHTFDFEGSMLEGIEGFFRSFGGIQTPYFRLSKGRIGLYGRLRRKWRAFHDTGQQKQV”, the “soluble on expression in E. coli” value is on record as “not soluble”.

In the case of “MKTFKAVRFQIVNEHGRIIEYELEDGVIINKEESGTGWLLEIVISNEHYETFKEYQDNEQLLDIRVVITRPANDPALFESTVKSIKNFKTTMSIVFECHIYTLRQQYAESLLEQLIDDGLSGEELKKSFNRMMQSKPKLKDEKLEELEHHHHHH”, the “soluble on expression in E. coli” value is recorded as “soluble”.

In the case of “MGSDKIHHHHHHMKAGLRIGLVGPLPPPSGGMANQTLQLAGLLREEHVEVELIQVNRPYRPGWIGRFKGIRAGFRLLSYVSQLWLSAGRVQLFHVMANSGWSWHLFAAPAIWIARLRGKPVIINYRGGEADSFFDKAFSWVKPSLSRANAIIVPSGFLEGVFGKRGFSASIVPNIIDLSRFGAGMRSDTSTVEAGPDSPHIIVTRNLEPIYDNETALRAFHIVRRSFPAAKLTLAGSGPERHTLEQLAFALGIGGAVTFTGRVDNEGMAAIYRSASVMLNPSLADNMPISILEALASGVPVVSTNVGGVPYLVEHEKNALLVPARDPQAMANAVLRLLNDAARTRRLIEAGMECVQRYTWPNVRVPLFRVYEQVLAAPDRSC”, the “soluble on expression in E. coli” value is listed as “not soluble”.

In the case of “MSLRSVVSFNEGWSFHEGFGQRLLENFDAAKPVSLPHTAVELPFNYFDEKSYQRAFTYQKVLRWLPEFEGREVSLVFDAAMADSVVYLNGEEITAHKDGYTPFEARLTGKLLKGENLVTVKIDGSENPAIPPFGGRIDYLTYAGIYRDVWLKVTDPVSIRNLKIETADVLAPHKSASIRVDLANPEGRSFSATLTAALKQADGTVIATAATETIGNRTTLSLGGLTGITLWDITNPTLYEVTVELRTEHGSDRLSTRFGFRTAEFTPEGFLLNGKPLKLRGLNRHQAFPYVGYAAGRSAQERDADIMKSVLKCNIVRTSHYPQSKWFLDRCDAIGLLVFEEIPGWQHIGDADWQKESIENVRRMIERDWNHPSIIIWGVRINESQDSHDFYAETNRLARELDSTRQTGGVRYITESELLEDVYTMNDFILGNEELPGANRPRTVLRGQQENTGLSRKVPYLITEFNGHMHPTKIYDQEQRQAEHVRRHLEVLNAAYGDPDISGAIGWCMFDYNTHKDFGSGDRVCYHGVMDMFREPKFAAYAYISQCEPSEEIVMKPVTFWARGERNIGGVLPLIILTNCDEVELQYGALSKRVGPDRENYPHLPHPPVVLDHRHFTADELGTWGLEWIDGALTGFIAGEAVVSLNLAADPLPTTLEMVADSSTLKTRERDSTRVIIRALDQCGQRLPFMNDSISLKVHGPARIVGPTNVPLQGGTSGFWLEATGLVGEITVEAVSSRFAPVTLNVTAVAEGHHHHHH”, the “soluble on expression in E. coli” value is “soluble”.

Turning to “MSSDHVFKYVIIGDRGVGKSNLLLRFIGKPFDSIHPSTLGIEFGFRNLEIDRKKVKLHVWDTCGQERFRSLVGSYYRHAIGALLVYDITSRESFYHLEHWLTDLQRLGDPDIVIVLIGNKSDLEADREVRKEEGEAFAREFGLIFMEISAKTNEYVEEAFVNSAHEIYRKLNFGIIKEICVKKKKKKMNIIIRSISGKEKACC”, the “soluble on expression in E. coli” value is given as “not soluble”.

Turning to “MGSDKIHHHHHHMNRNNFSHEIIEPIDNLDVNFKLFDDSGSYVANHWHNSLEIIYITSGDLQINMEGYTYNLKANECMFINSGIIHSTRCIYQNTSILLQVPLSFLNKYIPDFKNCYFDFKVNANDNNYKKNSSKVKLILENMREIKLSSPPAANLLFTSLLFELLFELYTNFKISVGNKNMKKTVLDLSKFEPVLEYTKINYKMPISINKIAKVAHLQPEYFCRKFKQYMGQTYLEYLNDVRISHIYKDLINTNDTLCSILEAHGFTNTKLFYRIFKEKFKCTPKHIRKKST”, the “soluble on expression in E. coli” value is “not soluble”.
